Patent publication US20240409645A1 (DUALYX, published 2024)
Residue numbers refer to the chain shown, from its start.

B1: FJ1427_P035MP07B07 (VHH)
VHH: QVQLVESGGGLVQAGGSLRLSCAASGRSLSRYAMGWFRQAPGKEREFVAAISWGGDSFYTDSVEGRFTFSRDNAKNAVYLEMNDLQPEDTAVYYCAAAPTSFPTTAYSSSNSYSYWGRGTQVTVSS
notes: tested as periplasmic extract; also called Clone nr; 626
B2: FJ1427_P035MP07C10 (VHH)
VHH: B1 VHH with Y32D, A50V, I51M, S57T, P103A
notes: tested as periplasmic extract; also called Clone nr; 651
B3: FJ1427_P035MP07A07 (VHH)
VHH: QVQLVESGGGLVQAGGSLRLSCAASGRTLSRYAMGWFRQAPGKEREFVTANSWGGDTYYADSVQGRFTFSRDNAKNTVYLQMNSLQPEDTAVYYCAAAPTSFATTAYSSSNSYAYWGQGTQVTVSS
notes: tested as periplasmic extract; also called Clone nr
B4: FJ1427_P035MP07A08 (VHH)
VHH: B3 VHH
notes: tested as periplasmic extract; also called Clone nr; 633
B5: FJ1427_P035MP07H08 (VHH)
VHH: B3 VHH
notes: tested as periplasmic extract; also called Clone nr; 640
B6: FJ1427_P035MP07E10 (VHH)
VHH: B3 VHH
notes: tested as periplasmic extract; also called Clone nr; 653
B7: FJ1427_P035MP07C08 (VHH)
VHH: B3 VHH
notes: tested as periplasmic extract; also called Clone nr; 635
B8: FJ1427_P035MP07C07 (VHH)
VHH: B3 VHH
notes: tested as periplasmic extract; also called Clone nr; 627
B9: FJ1427_P035MP07G07 (VHH)
VHH: B3 VHH
notes: as for B3
B10: FJ1427_P035MP06H02 (VHH)
VHH: QVQLVESGGGLVQAGGSLRLSCAVSGDVFVRYTMAWFRQAPGKEREFVASVTDSGRTTEYVDSVKGRFTVSRDNAKNTAYLQMNNLKPEDTAVYYCAANTDYFQIRSLDLNTWGQGTQVTVSS
notes: Soluble VHH in periplasmic extract (P.E.); also called Clone nr
B11: FJ1427 P035MP06C09 (VHH)
VHH: B10 VHH with Q1E, V24A, A40T, A79V, D109R, L110A
notes: as for B10
B12: FJ1427_P035MP06D03 (VHH)
VHH: B10 VHH with V24A, V93I
notes: Soluble VHH in periplasmic extract (P.E.); also called Clone nr; 500
B13: FJ1427 P035MP06F04 (VHH)
VHH: B10 VHH with A79V, N85S, D109R, L110A
notes: Soluble VHH in periplasmic extract (P.E.); also called Clone nr; 510
B14: FJ1427 P035MP06E12 (VHH)
VHH: B10 VHH with V24A, E59D, A79V, N85A, R106K
notes: as for B10
B15: FJ1427_P035MP06B05 (VHH)
VHH: B10 VHH with V24A, E59D, A79V, D109E, L110F
notes: as for B10
B16: FJ1427_P035MP06C04 (VHH)
VHH: B10 VHH with V5Q, V24A, E59D, A79V, D109E, L110F
notes: as for B10
B17: FJ1427_P035MP06B10 (VHH)
VHH: B10 VHH with V24A, F29L, V93I
notes: Soluble VHH in periplasmic extract (P.E.); also called Clone nr; 554
B18: FJ1427 P035MP06E03 (VHH)
VHH: B10 VHH with Q1E, V24A, E59D, A79V, R106K, L110R, S123P
notes: as for B10
B19: FJ1427 P035MP06G09 (VHH)
VHH: B10 VHH with A14P, V24A, E59D, A79V, R106K, L110R
notes: Soluble VHH in periplasmic extract (P.E.); also called Clone nr; 551
B20: FJ1427_P035MP06B07 (VHH)
VHH: B10 VHH with Q1E
notes: Soluble VHH in periplasmic extract (P.E.); also called Clone nr; 530
B21: FJ1427_P035MP06C06 (VHH)
VHH: B10 VHH with V5Q, A23V, S50V, A79V, L108V, L110N, T112A
notes: Soluble VHH in periplasmic extract (P.E.); also called Clone nr; 523
B22: FJ1427_P035MP06C08 (VHH)
VHH: B10 VHH with V24A, V93I
notes: as for B10
B23: FJ1427 P035MP06D08 (VHH)
VHH: B10 VHH with S123L
notes: Soluble VHH in periplasmic extract (P.E.); also called Clone nr; 540
B24: FJ1427_P035MP06B09 (VHH)
VHH: B10 VHH with F29L
notes: Soluble VHH in periplasmic extract (P.E.); also called Clone nr; 546
B25: FJ1427_P035MP06A09 (VHH)
VHH: B10 VHH with Q1E, V24A, E59D, A79V, R106K, L110R
notes: as for B10
B26: FJ1427 P035MP06B06 (VHH)
VHH: B10 VHH with Q1E, S17P
notes: as for B10
B27: FJ1427_P035MP06A06 (VHH)
VHH: B10 VHH with V2L, S21A, V24L, E59D, D62A, K65Q, A75N, A79V, N85S, L110R
notes: as for B10
B28: FJ1427_P035MP06A05 (VHH)
VHH: B10 VHH with E59D, D62H, A79V, R106K, L110A
notes: as for B10
B29: FJ1427_P035MP06D04 (VHH)
VHH: B10 VHH with V5Q, A23V, S50V, A79V, L108V, L110N, T112A
notes: as for B10
B30: FJ1427_P035MP06A03 (VHH)
VHH: B10 VHH with Q1E, V24A, E59D, A79V, D109E, L110F
notes: as for B10
B31: FJ1427_P035MP06C05 (VHH)
VHH: B10 VHH with Q1E, A23V, E44G, S50V, A79V, L108V, L110N, T112A
notes: as for B10

Tests used:
[1] = molecular target: T1, human common cytokine receptor γ-chain (IL-2Rγ) (human, UniProt P31785 23-262, limits assumed); experiment: P.E. binding ELISA
T1 construct: Recombinant human IL-2Rγ protein, coated (ELISA) or amine-coupled to a CM5 chip (SPR); also called hu IL-2R; CD132
T1 sequence: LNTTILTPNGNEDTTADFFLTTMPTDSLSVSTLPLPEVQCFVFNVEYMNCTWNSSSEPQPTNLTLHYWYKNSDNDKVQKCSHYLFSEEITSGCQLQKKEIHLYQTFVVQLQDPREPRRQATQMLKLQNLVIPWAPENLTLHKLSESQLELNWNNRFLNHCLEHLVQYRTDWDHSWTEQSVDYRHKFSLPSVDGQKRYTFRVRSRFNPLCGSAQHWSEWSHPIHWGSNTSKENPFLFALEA
How it was run: (§1)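 Plates were coated overnight at 4° C with human or mouse IL-2R chain protein, and free sites blocked for 1 hour in 4% Marvel in PBS. Periplasmic extracts diluted 1:5 in 1% Marvel/PBS then bound for 1 hour, with specificity assessed from 450 nm absorbance relative to negative controls.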

[2] = molecular target: T2, mouse common cytokine receptor γ-chain (IL-2Rγ) (mouse, UniProt P34902 23-263, limits assumed); experiment: P.E. binding ELISA
T2 construct: Recombinant mouse IL-2Rγ protein; also called mo IL-2R; mouse IL-2R gamma
T2 sequence (looked up): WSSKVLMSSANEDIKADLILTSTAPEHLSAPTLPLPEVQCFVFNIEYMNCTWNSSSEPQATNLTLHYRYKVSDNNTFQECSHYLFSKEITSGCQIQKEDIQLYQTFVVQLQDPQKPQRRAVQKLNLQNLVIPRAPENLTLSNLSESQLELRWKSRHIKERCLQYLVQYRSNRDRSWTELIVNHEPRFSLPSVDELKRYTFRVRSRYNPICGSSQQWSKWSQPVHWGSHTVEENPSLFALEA
How it was run: as §1

[3] = molecular target: T1, human common cytokine receptor γ-chain …; experiment: P.E. off-rate SPR
How it was run: (§2)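 Dissociation rates of nanobody (VHH) periplasmic extracts were measured across a 120s window on an amine-coupled carboxymethyl dextran surface bearing about 2500 RUs of receptor; injection flow 30 uL/min.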

[4] = molecular target: T2, mouse common cytokine receptor γ-chain …; experiment: P.E. off-rate SPR
How it was run: as §2

human IL-2Rβ [5] = molecular target: T3, human IL-2Rβ (human, UniProt P14784 27-240, limits assumed); experiment: P.E. binding ELISA, human IL-2Rβ coated
T3 construct: Recombinant human IL-2Rβ protein, coated on ELISA plates or immobilized on a CM5 chip; also called hu IL-2R; interleukin 2 receptor β-chain
T3 sequence: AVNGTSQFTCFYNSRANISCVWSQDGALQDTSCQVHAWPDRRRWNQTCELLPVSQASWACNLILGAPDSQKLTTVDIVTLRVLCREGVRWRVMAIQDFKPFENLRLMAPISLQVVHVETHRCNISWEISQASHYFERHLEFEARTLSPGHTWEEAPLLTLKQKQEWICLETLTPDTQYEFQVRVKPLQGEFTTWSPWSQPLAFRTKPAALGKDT
Experimental: In a binding ELISA, human or mouse IL-2Rα, IL-2Rβ and IL-2Rγ proteins were coated directly on maxisorp microtiter plates overnight at 4° C. Free binding sites were blocked using 4% Marvel in PBS for 1 hour. Next, 1:5 dilution of P.E. in 1% Marvel/PBS were added to wells and incubated for 1 hour. […] Binding specificity was determined based on O.D. at 450 nm values compared to negative controls.

human IL-2Rβ [6] = molecular target: T3, human IL-2Rβ; experiment: SPR off-rate ranking of P.E., human IL-2Rβ immobilized
Experimental: SPR was performed to determine dissociation rates using Biacore 3000 instrument (GE Healthcare). Briefly, human and mouse IL-2R proteins were immobilized on carboxylmethyl dextran sensor chip (CM5) at approximately 2500 RUs using amine coupling in acetate buffer (GE Healthcare). The VHH-containing P.E. were loaded with a flow rate of 30 uL/min and the off-rates were measured over a 120s period.

Binder | PE binding ELISA OD [1] [OD450 nm] | PE binding ELISA OD [2] [OD450 nm] | koff [3] [s⁻¹] | koff [4] [s⁻¹] | OD450 nm (P.E. binding ELISA) (human IL-2Rβ [5]) [OD450 nm] | koff (human IL-2Rβ [6]) [s⁻¹]
B1 | 0.29 | 0.045 | 0.00259 | 0.00347 |  | 
B2 | 0.424 | 0.074 | 0.00176 | 0.0132 |  | 
B3 | 1.04 | 0.047 | 0.00173 | 0.0971 |  | 
B4 | 0.889 | 0.049 | 0.00255 | 0.106 |  | 
B5 | 0.51 | 0.047 | 0.00303 | 0.1 |  | 
B6 | 0.434 | 0.047 | 0.0033 | 0.107 |  | 
B7 | 0.528 | 0.049 | 0.00259 | 0.108 |  | 
B8 | 0.469 | 0.047 | 0.0025 | 0.105 |  | 
B9 | 0.479 | 0.045 | 0.00273 | 0.106 |  | 
B10 |  |  |  |  | 0.371 | 0.000171
B11 |  |  |  |  | 0.69 | 0.00101
B12 |  |  |  |  | 1.02 | 0.00029
B13 |  |  |  |  | 1.33 | 0.000487
B14 |  |  |  |  | 0.271 | 0.000496
B15 |  |  |  |  | 0.617 | 0.000871
B16 |  |  |  |  | 0.187 | 0.00084

Binder | PE binding ELISA OD [1] [OD450 nm] | PE binding ELISA OD [2] [OD450 nm] | koff [3] [s⁻¹] | koff [4] [s⁻¹] | OD450 nm (P.E. binding ELISA) (human IL-2Rβ [5]) [OD450 nm] | koff (human IL-2Rβ [6]) [s⁻¹]
B17 |  |  |  |  | 0.264 | 0.00223
B18 |  |  |  |  | 0.57 | 0.000745
B19 |  |  |  |  | 0.202 | 0.000726
B20 |  |  |  |  | 1.01 | 0.000285
B21 |  |  |  |  | 0.255 | 0.000698
B22 |  |  |  |  | 0.297 | 0.000335
B23 |  |  |  |  | 0.836 | 0.000209
B24 |  |  |  |  | 0.329 | 0.00225
B25 |  |  |  |  | 0.192 | 0.000947
B26 |  |  |  |  | 1.42 | 0.000324
B27 |  |  |  |  | 0.3 | 0.000631
B28 |  |  |  |  | 0.149 | 0.00118
B29 |  |  |  |  | 0.189 | 0.000621
B30 |  |  |  |  | 0.148 | 0.000882
B31 |  |  |  |  | 0.58 | 0.000751
